Test results: patent US20230250154A1 (CYTONICS, published 2023)

T1: Cathepsin G (UniProt P08311 21-244)
T1 sequence (looked up): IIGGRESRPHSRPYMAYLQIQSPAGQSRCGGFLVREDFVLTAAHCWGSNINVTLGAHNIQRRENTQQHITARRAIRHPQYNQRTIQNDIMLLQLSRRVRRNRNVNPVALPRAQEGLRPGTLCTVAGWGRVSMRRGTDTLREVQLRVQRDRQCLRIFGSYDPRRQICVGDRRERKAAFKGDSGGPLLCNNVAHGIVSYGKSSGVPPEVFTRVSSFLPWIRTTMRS


Columns and labels:
Cathepsin G = molecular target: T1, Cathepsin G; experiment: cell-based or functional assay
Elastase = experiment: cell-based or functional assay

Protease Inhibition (% of WT) (Cathepsin G)	Protease Inhibition (% of WT) (Elastase)	Binder
450 % of WT	100 % of WT	Variant A2M, bait region SEQ ID NO 137 (other) SVSGKPQYMVLVPSLLHTETTEKGCVLLSYLNETVTVSASLESVRGNRSLFTDLEAENDVLHCVAFAVPKSSSNEEVMFLTVQVKGPTQEFKKRTTVMVKNEDSLVFVQTDKSIYKPGQTVKFRVVSMDENFHPLNELIPLVYIQDPKGNRIAQWQSFQLEGGLKQFSFPLSSEPFQGSYKVVVQKKSGGRTEHPFTVEEFVLPKFEVQVTVPKIITILEEEMNVSVCGLYTYGKPVPGHVTVSICRKYSDASDCHGEDSQAFCEKFSGQLNSHGCFYQQVKTKVFQLKRKEYEMKLHTEAQIQEEGTVVELTGRQSSEITRTITKLSFVKVDSHFRQGIPFFGQVRLVDGKGVPIPNKVIFIRGNEANYYSNATTDEHGLVQFSINTTNVMGTSLTVRVNYKDRSPCYGYQWVSEEHEEAHHTAYLVFSPSKSFVHLEPMSHELPCGHTQTVQAHYILNGGTLLGLKKLSFYYLIMAKGGIVRTGTHGLLVKQEDMKGHFSISIPVKSDIAPVARLLIYAVLPTGDVIGDSAKYDVENCLANKVDLSFSPSQSLPASHAHLRVTAAPQSVCALRAVDQSVLLMKPDAELSASSVYNLLPEKDLTGFPGPLNDQDDEDCINRHNVYINGITYTPVSSTNEKDMYSFLEDMGLKAFTNSKIRKPKMCPQLEQYEMHGPSEDLVVQIKEEEGLGSIPENFFGVSELEGRGSVEEPHTKLRKYFPETWIWDLVVVNSAGVAEVGVTVPDTITEWKAGAFCLSEDAGLGISSTASLRAFQPFFVELTMPYSVIRGEAFTLKATVLNYLPKCIRVSVQLEASPAFLAVPVEKEQAPHCICANGRQTVSWAVTPKSLGNVNFTVSAEALESQELCGTEVPSVPEHGRKDTVIKPLLVEPEGLEKETTFNSLLCPSGGEVSEELSLKLPPNVVEESARASVSVLGDILGSAMQNTQNLLQMPYGCGEQNMVLFAPNIYVLDYLNETQQLTPEIKSKAIGYLNTGYQRQLNYKHYDGSYSTFGERYGRNQGNTWLTAFVLKTFAQARAYIFIDEAHITQALIWLSQRQKDNGCFRSSGSLLNNAIKGGVEDEVTLSAYITIALLEIPLTVTHPVVRNALFCLESAWKTAQEGDHGSHVYTKALLAYAFALAGNQDKRKEVLKSLNEEAVKKDNSVHWERPQKPKAPVGHFYEPQAPSAEVEMTSYVLLAYLTAQPAPTSEDLTSATNIVKWITKQQNAQGGFSSTQDTVVALHALSKYGAATFTRTGKAAQVTIQSSGTFSSKFQVDNNNRLLLQQVSLPELPGEYSMKVTGEGCVYLQTSLKYNILPEKEEFPFALGVQTLPQTCDEPKAHTSFQISLSVSYTGSRSASNMAIVDVKMVSGFIPLKPTVKMLERSNHVSRTEVSSNHVLIYLDKVSNQTLSLFFTVLQDVPVRDLKPAIVKVYDYYETDEFAIAEYNAPCSKDLGNADYKDDDDKGASHHHHHH
250 % of WT	75 % of WT	Variant A2M, bait region SEQ ID NO 124 (other) SVSGKPQYMVLVPSLLHTETTEKGCVLLSYLNETVTVSASLESVRGNRSLFTDLEAENDVLHCVAFAVPKSSSNEEVMFLTVQVKGPTQEFKKRTTVMVKNEDSLVFVQTDKSIYKPGQTVKFRVVSMDENFHPLNELIPLVYIQDPKGNRIAQWQSFQLEGGLKQFSFPLSSEPFQGSYKVVVQKKSGGRTEHPFTVEEFVLPKFEVQVTVPKIITILEEEMNVSVCGLYTYGKPVPGHVTVSICRKYSDASDCHGEDSQAFCEKFSGQLNSHGCFYQQVKTKVFQLKRKEYEMKLHTEAQIQEEGTVVELTGRQSSEITRTITKLSFVKVDSHFRQGIPFFGQVRLVDGKGVPIPNKVIFIRGNEANYYSNATTDEHGLVQFSINTTNVMGTSLTVRVNYKDRSPCYGYQWVSEEHEEAHHTAYLVFSPSKSFVHLEPMSHELPCGHTQTVQAHYILNGGTLLGLKKLSFYYLIMAKGGIVRTGTHGLLVKQEDMKGHFSISIPVKSDIAPVARLLIYAVLPTGDVIGDSAKYDVENCLANKVDLSFSPSQSLPASHAHLRVTAAPQSVCALRAVDQSVLLMKPDAELSASSVYNLLPEKDLTGFPGPLNDQDDEDCINRHNVYINGITYTPVSSTNEKDMYSFLEDMGLKAFTNSKIRKPKMCPQLEQYEMHGPKEEEGLGSSELEGRGSEAIPMSIPTIPENFFGVVEEPHTKLRKYFPETWIWDLVVVNSAGVAEVGVTVPDTITEWKAGAFCLSEDAGLGISSTASLRAFQPFFVELTMPYSVIRGEAFTLKATVLNYLPKCIRVSVQLEASPAFLAVPVEKEQAPHCICANGRQTVSWAVTPKSLGNVNFTVSAEALESQELCGTEVPSVPEHGRKDTVIKPLLVEPEGLEKETTFNSLLCPSGGEVSEELSLKLPPNVVEESARASVSVLGDILGSAMQNTQNLLQMPYGCGEQNMVLFAPNIYVLDYLNETQQLTPEIKSKAIGYLNTGYQRQLNYKHYDGSYSTFGERYGRNQGNTWLTAFVLKTFAQARAYIFIDEAHITQALIWLSQRQKDNGCFRSSGSLLNNAIKGGVEDEVTLSAYITIALLEIPLTVTHPVVRNALFCLESAWKTAQEGDHGSHVYTKALLAYAFALAGNQDKRKEVLKSLNEEAVKKDNSVHWERPQKPKAPVGHFYEPQAPSAEVEMTSYVLLAYLTAQPAPTSEDLTSATNIVKWITKQQNAQGGFSSTQDTVVALHALSKYGAATFTRTGKAAQVTIQSSGTFSSKFQVDNNNRLLLQQVSLPELPGEYSMKVTGEGCVYLQTSLKYNILPEKEEFPFALGVQTLPQTCDEPKAHTSFQISLSVSYTGSRSASNMAIVDVKMVSGFIPLKPTVKMLERSNHVSRTEVSSNHVLIYLDKVSNQTLSLFFTVLQDVPVRDLKPAIVKVYDYYETDEFAIAEYNAPCSKDLGNADYKDDDDKGASHHHHHH
100 % of WT	75 % of WT	Variant A2M, bait region SEQ ID NO 141 (other) SVSGKPQYMVLVPSLLHTETTEKGCVLLSYLNETVTVSASLESVRGNRSLFTDLEAENDVLHCVAFAVPKSSSNEEVMFLTVQVKGPTQEFKKRTTVMVKNEDSLVFVQTDKSIYKPGQTVKFRVVSMDENFHPLNELIPLVYIQDPKGNRIAQWQSFQLEGGLKQFSFPLSSEPFQGSYKVVVQKKSGGRTEHPFTVEEFVLPKFEVQVTVPKIITILEEEMNVSVCGLYTYGKPVPGHVTVSICRKYSDASDCHGEDSQAFCEKFSGQLNSHGCFYQQVKTKVFQLKRKEYEMKLHTEAQIQEEGTVVELTGRQSSEITRTITKLSFVKVDSHFRQGIPFFGQVRLVDGKGVPIPNKVIFIRGNEANYYSNATTDEHGLVQFSINTTNVMGTSLTVRVNYKDRSPCYGYQWVSEEHEEAHHTAYLVFSPSKSFVHLEPMSHELPCGHTQTVQAHYILNGGTLLGLKKLSFYYLIMAKGGIVRTGTHGLLVKQEDMKGHFSISIPVKSDIAPVARLLIYAVLPTGDVIGDSAKYDVENCLANKVDLSFSPSQSLPASHAHLRVTAAPQSVCALRAVDQSVLLMKPDAELSASSVYNLLPEKDLTGFPGPLNDQDDEDCINRHNVYINGITYTPVSSTNEKDMYSFLEDMGLKAFTNSKIRKPKMCPQLEQYEMHGPEAIPMSIPTSELEGRGSIPENFFGVEGEGEGEGEPHTKLRKYFPETWIWDLVVVNSAGVAEVGVTVPDTITEWKAGAFCLSEDAGLGISSTASLRAFQPFFVELTMPYSVIRGEAFTLKATVLNYLPKCIRVSVQLEASPAFLAVPVEKEQAPHCICANGRQTVSWAVTPKSLGNVNFTVSAEALESQELCGTEVPSVPEHGRKDTVIKPLLVEPEGLEKETTFNSLLCPSGGEVSEELSLKLPPNVVEESARASVSVLGDILGSAMQNTQNLLQMPYGCGEQNMVLFAPNIYVLDYLNETQQLTPEIKSKAIGYLNTGYQRQLNYKHYDGSYSTFGERYGRNQGNTWLTAFVLKTFAQARAYIFIDEAHITQALIWLSQRQKDNGCFRSSGSLLNNAIKGGVEDEVTLSAYITIALLEIPLTVTHPVVRNALFCLESAWKTAQEGDHGSHVYTKALLAYAFALAGNQDKRKEVLKSLNEEAVKKDNSVHWERPQKPKAPVGHFYEPQAPSAEVEMTSYVLLAYLTAQPAPTSEDLTSATNIVKWITKQQNAQGGFSSTQDTVVALHALSKYGAATFTRTGKAAQVTIQSSGTFSSKFQVDNNNRLLLQQVSLPELPGEYSMKVTGEGCVYLQTSLKYNILPEKEEFPFALGVQTLPQTCDEPKAHTSFQISLSVSYTGSRSASNMAIVDVKMVSGFIPLKPTVKMLERSNHVSRTEVSSNHVLIYLDKVSNQTLSLFFTVLQDVPVRDLKPAIVKVYDYYETDEFAIAEYNAPCSKDLGNADYKDDDDKGASHHHHHH
